Experimental data published in US20050066376.

System: T1, Minos transposase (fly cDNA ILMi) (Drosophila hydei)
T1 sequence: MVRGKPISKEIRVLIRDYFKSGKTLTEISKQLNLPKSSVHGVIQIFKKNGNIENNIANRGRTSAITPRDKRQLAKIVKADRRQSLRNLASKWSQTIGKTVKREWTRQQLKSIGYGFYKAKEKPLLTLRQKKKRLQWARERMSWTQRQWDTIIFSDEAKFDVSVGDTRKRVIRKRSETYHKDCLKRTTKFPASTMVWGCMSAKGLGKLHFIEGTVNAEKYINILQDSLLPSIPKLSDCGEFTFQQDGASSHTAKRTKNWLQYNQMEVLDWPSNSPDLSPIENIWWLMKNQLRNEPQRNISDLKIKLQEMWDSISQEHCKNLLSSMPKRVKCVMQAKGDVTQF
Test: cell_activity
Settings: germ-line transposition frequency in mouse, 12 events in 146 transposon-positive progeny; TA target site duplication

## Minos transposon MiCMVGFP (Minos inverted repeats flanking CMV-GFP)
  activity: 8.2%
